Where two headings read alike, the source gives them in different places.

We go through four molecules from patent US20170218352.

The subject of series [1] is type III collagen.
The subject of series [2] is type V collagen.
The test system of series [3] is N-(3[2-furyl]acryloyl)-Leu-Gly-Pro-Ala.
Series [4] has as its system type II collagen.
Series [5] relates to fluorescently labeled type I collagen (FITC-collagen).
For series [6], the system named is type VI collagen.
Series [7] has as its system type I collagen.
Series [8] concerns type IV collagen.
The target of series [9] is T1, N-(3[2-furyl]acryloyl)-Leu-Gly-Pro-Ala.
T1 chain: LGPA

The target in series [10] is type II collagen. This is another data set of the same source.
The target in series [11] is type V collagen. This is another data set of the same source.
For series [12], the target named is fluorescently labeled type I collagen (FITC-collagen). This is another data set of the same source.
For series [13], the target named is type VI collagen. The source holds these as a separate data set.
The target of series [14] is type IV collagen. The source holds these as a separate data set.
Series [15] addresses type III collagen. This is another data set of the same source.
Series [16] deals with type I collagen. The source holds these as a separate data set.

For the molecule “collagenase derived from Clostridium histolyticum (manufactured by Roche Applied Science, trade name "Liberase C/T")”, the “disappearance of collagen bands on electrophoresis after incubation” value in series [1] was “This tendency was also similarly observed for the type II, type III, type IV, type V, and type VI collagens”; in series [2] it was “the bands do not disappear when the liberase is used”; in series [4], “This tendency was also similarly observed for the type II, type III, type IV, type V, and type VI collagens”; in [6], “the band does not disappear when the liberase is used”; in series [7] it was “the recombinant 62 kDa collagenase seems to more rapidly digest the type I collagen than liberase”; in series [8], “the bands do not disappear when the liberase is used”. In addition, the Maximum rate was 0.2 mM/s in series [3] and 0.00016 mM/s in series [5]. Further, the Michaelis constant in series [3] worked out at 2.03 mM; in series [5] it was 0.0019 mM. The Molecular activity in series [3] was found to be 22.2 s⁻¹; in [5], 18.7 s⁻¹. Also, the Specific activity in [3] is 2.6 U/mg; in series [5], 1770 U/mg.

B1: recombinant 62 kDa collagenase (Grimontia hollisae-derived recombinant collagenase) (protein)
chain: AVEQCDLSQFQTTSSNQLMAAIRQQGASCVNALFSADTGVQEAAFSSNHMYNVAQYTRTLAQQYAGGGSDELEALYLYLRAGYYAEFYNSNITFLSWVTPAVKGAVDAFVQNAHFYDNGDAHGKVLNEVIITMDSAGLQHAYLDVVTQWLTRWNAQYAEHWYMRNAVNGVFTLLFGGQWNNQYTSLIGEQTALVTALQAFALDRTKVNSPTEFMAANAARELGRLARYTDATIAPKVTEGLTAIFGQYPSYGDGDAIWLGAADTASYYADCSQFNICGFEDALRDAALNQTFICSDTIKIRSQDMSQAQHLAACDKMAYEESFFHTTLETGNQPVADDHNTQLQVNIFNSDTDYGKYAGPIFGIDTNNGGMYLEGNPANVGNIPNFIAYEASYANPDHFVWNLEHEYVHYLDGRFNMYGDFGTPTELVVWWSEGVAEYVSRVNDNPQAIATIQDGSTYTLAQVFDTTYDGFDVDRIYRWGYLAVRFMFERHPDEVQRMLSATRQGRWAEYKAIISGWANQYQSEFAQWTEALAKGDSGAGNGEGTGSGNEGGGESGGNT
In the case of B1, the results for the Maximum rate in series [9] and in [12] were 0.6 mM/s and 0.00041 mM/s, respectively. Besides, the Michaelis constant in [9] is 2.28 mM; in series [12] it was 0.0011 mM. For the same molecule, the Molecular activity amounted to 37.5 s⁻¹ in [9] and 25.1 s⁻¹ in [12]. For the same molecule, the Specific activity in [9] is 9.39 U/mg; in [12], 5490 U/mg. Further, the “disappearance of collagen bands on electrophoresis after incubation” value was “This tendency was also similarly observed for the type II, type III, type IV, type V, and type VI collagens” in series [10]; “the band become weaker when the recombinant 62 kDa collagenase is used to react for three hours or five hours” in series [11]; “the band become weaker when the recombinant 62 kDa collagenase is used to react for 72 hours” in [13]; “the band become weaker when the recombinant 62 kDa collagenase is used to react for three hours or five hours” in series [14]; “This tendency was also similarly observed for the type II, type III, type IV, type V, and type VI collagens” in [15]; “the recombinant 62 kDa collagenase seems to more rapidly digest the type I collagen than liberase” in series [16]. Moreover, the “specific activity (from immediately after the purification to 24 hours)” value in series [12] is 12,000 (U/mg).

B2: 74 kDa collagenase (Grimontia hollisae-derived collagenase lacking the prepro region) (protein)
chain: AVEQCDLSQFQTTSSNQLMAAIRQQGASCVNALFSADTGVQEAAFSSNHMYNVAQYTRTLAQQYAGGGSDELEALYLYLRAGYYAEFYNSNITFLSWVTPAVKGAVDAFVQNAHFYDNGDAHGKVLNEVIITMDSAGLQHAYLDVVTQWLTRWNAQYAEHWYMRNAVNGVFTLLFGGQWNNQYTSLIGEQTALVTALQAFALDRTKVNSPTEFMAANAARELGRLARYTDATIAPKVTEGLTAIFGQYPSYGDGDAIWLGAADTASYYADCSQFNICGFEDALRDAALNQTFICSDTIKIRSQDMSQAQHLAACDKMAYEESFFHTTLETGNQPVADDHNTQLQVNIFNSDTDYGKYAGPIFGIDTNNGGMYLEGNPANVGNIPNFIAYEASYANPDHFVWNLEHEYVHYLDGRFNMYGDFGTPTELVVWWSEGVAEYVSRVNDNPQAIATIQDGSTYTLAQVFDTTYDGFDVDRIYRWGYLAVRFMFERHPDEVQRMLSATRQGRWAEYKAIISGWANQYQSEFAQWTEALAKGDSGAGNGEGTGSGNEGGGESGGNTGLPENCAVLPKISDGRLALDEAACLADTASASDVLWFSIPAVSEYQTIAITAGNGTGDLTLEYSNLNWPDGTNVQASSANMGNSECIILEHQANYWGYLKVSGSFENAALLVEAGSNQCRQ
Take B2: in [12], the “specific activity (24 hours after the purification)” value is listed as 11,500 (U/mg) and the “specific activity (immediately after the purification)” value is reported as 18,000 (U/mg).

B3: recombinant 60 kDa collagenase (Grimontia hollisae-derived recombinant collagenase) (protein)
chain: AVEQCDLSQFQTTSSNQLMAAIRQQGASCVNALFSADTGVQEAAFSSNHMYNVAQYTRTLAQQYAGGGSDELEALYLYLRAGYYAEFYNSNITFLSWVTPAVKGAVDAFVQNAHFYDNGDAHGKVLNEVIITMDSAGLQHAYLDVVTQWLTRWNAQYAEHWYMRNAVNGVFTLLFGGQWNNQYTSLIGEQTALVTALQAFALDRTKVNSPTEFMAANAARELGRLARYTDATIAPKVTEGLTAIFGQYPSYGDGDAIWLGAADTASYYADCSQFNICGFEDALRDAALNQTFICSDTIKIRSQDMSQAQHLAACDKMAYEESFFHTTLETGNQPVADDHNTQLQVNIFNSDTDYGKYAGPIFGIDTNNGGMYLEGNPANVGNIPNFIAYEASYANPDHFVWNLEHEYVHYLDGRFNMYGDFGTPTELVVWWSEGVAEYVSRVNDNPQAIATIQDGSTYTLAQVFDTTYDGFDVDRIYRWGYLAVRFMFERHPDEVQRMLSATRQGRWAEYKAIISGWANQYQSEFAQWTEALAKGDS
On to B3, for which the “specific activity (from immediately after the purification to 24 hours)” value in series [12] was 12,000 (U/mg).
